Measured values taken from paper PMC8289115, “Liquid–liquid phase separation of full-length prion protein initiates conformational conversion in vitro” (The Journal of Biological Chemistry, 2021).

Molecular target: the molecule itself
Assay: SDS-PAGE and Western blotting of aged gels collected by centrifugation

B1: full-length human recombinant prion protein (residues 23-231) (natural protein)
chain: not shown
notes: also called rPrP; hu-PrP; source: E. coli DH5α, purified
Q: Does B1 bind?
A: binds
